Experimental data as given in article PMC6717114.

Columns and labels:
[1] = biological target: Mouse Cdh23 EC1-2(D101G) (mouse); assay: single-molecule force spectroscopy
[2] = biological target: Mouse Cdh23 EC1-2 wild-type (mouse) (UniProt Q99PF4); assay: single-molecule force spectroscopy
Sequence of Mouse Cdh23 EC1-2 wild-type (mouse) (Q99PF4 24-228): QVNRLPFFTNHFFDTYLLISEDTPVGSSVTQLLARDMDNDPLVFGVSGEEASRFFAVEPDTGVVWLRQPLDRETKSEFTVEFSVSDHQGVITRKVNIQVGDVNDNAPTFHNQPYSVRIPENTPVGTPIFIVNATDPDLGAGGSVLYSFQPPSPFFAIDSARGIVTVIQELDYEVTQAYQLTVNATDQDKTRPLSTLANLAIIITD

Substance	koff [1] [s⁻¹]	koff [2] [s⁻¹]
Mouse Pcdh15 EC1-2 wild-type (from UniProt Q99PJ1-18 27-259) (domain or fragment)	0.0097	
Mouse Pcdh15 EC1-2(D157G) (domain or fragment)		0.044
